± gives the uncertainty stated by the source.

These results are taken from the Human Domainome abundance scans (Beltran et al. 2025).

B1: Zinc finger homeobox protein 4, residues 2183 to 2238; numbered along this chain, Q86UP3 (parent)
chain: SSRTRFTDYQLRVLQDFFDTNAYPKDDEIEQLSTVLNLPTRVIVVWFQNARQKARK
B2: Tyrosine-protein kinase BTK, residues 215 to 273; numbered along this chain, Q06187 (parent)
chain: ELKKVVALYDYMPMNANDLQLRKGDEYFILEESNLPWWRARDKNGQEGYIPSNYVTEAE

The variants in one data set derive from B1. Kind of data set: abundance fitness (aPCA) (normalised: wild type 0, dead -1); higher = more abundant; growth selection in yeast, the domain comes from the species named. The note with it: Homo sapiens.
With SIRTRFTDYQLRVLQDFFDTNAYPKDDEIEQLSTVLNLPTRVIVVWFQNARQKARK, the abundance fitness is -0.059 ± 0.13.
On the same count and under the same terms, the value for SRRTRFTDYQLRVLQDFFDTNAYPKDDEIEQLSTVLNLPTRVIVVWFQNARQKARK was -0.106 ± 0.091; that for SLRTRFTDYQLRVLQDFFDTNAYPKDDEIEQLSTVLNLPTRVIVVWFQNARQKARK was -0.144 ± 0.098.
The same measure, in the same setting: the value for SDRTRFTDYQLRVLQDFFDTNAYPKDDEIEQLSTVLNLPTRVIVVWFQNARQKARK was 0.254 ± 0.11; that for SARTRFTDYQLRVLQDFFDTNAYPKDDEIEQLSTVLNLPTRVIVVWFQNARQKARK was -0.407 ± 0.094; that for SVRTRFTDYQLRVLQDFFDTNAYPKDDEIEQLSTVLNLPTRVIVVWFQNARQKARK was -0.043 ± 0.087.
Still for that read-out and setting: the value for SERTRFTDYQLRVLQDFFDTNAYPKDDEIEQLSTVLNLPTRVIVVWFQNARQKARK was 0.195 ± 0.11; that for SKRTRFTDYQLRVLQDFFDTNAYPKDDEIEQLSTVLNLPTRVIVVWFQNARQKARK was 0.053 ± 0.19; that for SQRTRFTDYQLRVLQDFFDTNAYPKDDEIEQLSTVLNLPTRVIVVWFQNARQKARK was 0.262 ± 0.16.
On to SWRTRFTDYQLRVLQDFFDTNAYPKDDEIEQLSTVLNLPTRVIVVWFQNARQKARK, for which the abundance fitness was -0.477 ± 0.17.
On the same count and under the same terms, the value for SSHTRFTDYQLRVLQDFFDTNAYPKDDEIEQLSTVLNLPTRVIVVWFQNARQKARK was 0.367 ± 0.12; that for SSETRFTDYQLRVLQDFFDTNAYPKDDEIEQLSTVLNLPTRVIVVWFQNARQKARK was 0.201 ± 0.11; that for SSKTRFTDYQLRVLQDFFDTNAYPKDDEIEQLSTVLNLPTRVIVVWFQNARQKARK was 0.31 ± 0.12.
On to SSFTRFTDYQLRVLQDFFDTNAYPKDDEIEQLSTVLNLPTRVIVVWFQNARQKARK, for which the abundance fitness is 0.32 ± 0.2.
Same read-out and setting: for SSGTRFTDYQLRVLQDFFDTNAYPKDDEIEQLSTVLNLPTRVIVVWFQNARQKARK the value was 0.297 ± 0.065; for SSTTRFTDYQLRVLQDFFDTNAYPKDDEIEQLSTVLNLPTRVIVVWFQNARQKARK, 0.368 ± 0.13; for SSQTRFTDYQLRVLQDFFDTNAYPKDDEIEQLSTVLNLPTRVIVVWFQNARQKARK, 0.053 ± 0.11.
Same read-out and setting: the value for SSVTRFTDYQLRVLQDFFDTNAYPKDDEIEQLSTVLNLPTRVIVVWFQNARQKARK was 0.334 ± 0.08.
Same read-out and setting: the value for SSPTRFTDYQLRVLQDFFDTNAYPKDDEIEQLSTVLNLPTRVIVVWFQNARQKARK was 0.09 ± 0.12.
Take SSNTRFTDYQLRVLQDFFDTNAYPKDDEIEQLSTVLNLPTRVIVVWFQNARQKARK: the abundance fitness is 0.364 ± 0.13.
Still for that read-out and setting: the value for SSDTRFTDYQLRVLQDFFDTNAYPKDDEIEQLSTVLNLPTRVIVVWFQNARQKARK was 0.343 ± 0.14; that for SSMTRFTDYQLRVLQDFFDTNAYPKDDEIEQLSTVLNLPTRVIVVWFQNARQKARK was 0.344 ± 0.12; that for SSYTRFTDYQLRVLQDFFDTNAYPKDDEIEQLSTVLNLPTRVIVVWFQNARQKARK was 0.198 ± 0.16.
Consider SSITRFTDYQLRVLQDFFDTNAYPKDDEIEQLSTVLNLPTRVIVVWFQNARQKARK, for which the abundance fitness stood at 0.489 ± 0.16.
Still for that read-out and setting: the value for SSLTRFTDYQLRVLQDFFDTNAYPKDDEIEQLSTVLNLPTRVIVVWFQNARQKARK was 0.358 ± 0.089; that for SSCTRFTDYQLRVLQDFFDTNAYPKDDEIEQLSTVLNLPTRVIVVWFQNARQKARK was 0.484 ± 0.099; that for SSWTRFTDYQLRVLQDFFDTNAYPKDDEIEQLSTVLNLPTRVIVVWFQNARQKARK was 0.253 ± 0.094.
Consider SSATRFTDYQLRVLQDFFDTNAYPKDDEIEQLSTVLNLPTRVIVVWFQNARQKARK, for which the abundance fitness was 0.358 ± 0.083.

The variants in the next data set derive from B2. Described as above. To be noted: Homo sapiens.
On to A58E, for which the abundance fitness was determined as 0.08 ± 0.057.
On the same count and under the same terms, for A58T the value was -0.051 ± 0.053.
Consider A58K, for which the abundance fitness is -0.005 ± 0.086.
As for A58R, the abundance fitness was -0.03 ± 0.041.
On the same count and under the same terms, the value for A58L was -0.113 ± 0.039; that for A58V was 0.001 ± 0.037; that for A58W was -0.11 ± 0.083.
Regarding A58Q, the abundance fitness is -0.072 ± 0.077.
Turning to A58I, the abundance fitness is -0.223 ± 0.071.
In the case of A58P, the abundance fitness is -0.001 ± 0.064.
As to A58G, the abundance fitness is -0.01 ± 0.036.
A58N: the abundance fitness was -0.012 ± 0.073.
For A58Y, the abundance fitness was -0.016 ± 0.075.
In the case of A58F, the abundance fitness was -0.016 ± 0.073.
Same read-out and setting: the value for E59Y was -0.116 ± 0.097; that for E59L was -0.097 ± 0.06; that for E59G was 0.042 ± 0.056.
Turning to E59I, the abundance fitness is -0.014 ± 0.088.
On the same count and under the same terms, for E59S the value was 0.067 ± 0.053; for E59C, -0.061 ± 0.073.
Consider E59M, for which the abundance fitness was -0.138 ± 0.083.
Regarding E59F, the abundance fitness was -0.072 ± 0.1.
Still for that read-out and setting: for E59W the value was -0.081 ± 0.064; for E59P, -0.025 ± 0.1.
Turning to E59K, the abundance fitness is -0.008 ± 0.08.
On the same count and under the same terms, the value for E59Q was -0.015 ± 0.1.
In the case of E59T, the abundance fitness is -0.012 ± 0.083.
Regarding E59H, the abundance fitness is -0.054 ± 0.13.
For E59V, the abundance fitness worked out at 0.023 ± 0.075.
Consider E59D, for which the abundance fitness was -0.128 ± 0.086.
